Inhibition of infection of Huh-7.5 cells by HCVcc (infected foci, HCV core immunofluorescence), cells preincubated with 0.05 to 2 µM HCV E2e; 10% inhibition data for one substance are collected here from publication PMC2824758.

The test deals with CD81 large external loop (LEL) (UniProt P60033).
Sequence of UniProt P60033 (P60033 113-201): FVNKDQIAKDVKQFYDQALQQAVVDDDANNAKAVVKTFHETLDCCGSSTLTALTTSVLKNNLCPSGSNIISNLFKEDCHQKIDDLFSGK

“HCV E2 ectodomain (E2e), isolate UKN2b_2.8, genotype 2b (domain or fragment)” had an inhibition of infection of Huh-7.5 cells by HCVcc (infected foci, HCV core immunofluorescence), cells preincubated with 0.05 to 2 µM HCV E2e; 10% inhibition at 0.05 µM of 90%.
